Data published in patent US20250042970A1 (AURINIA PHARMACEUTICALS, published 2025).
Ends that are not written are not given here. pIg22 = chimeric Ig-Fc consisting of the CH2 domain of PIg18 (IgG2 derivative) and the CH3 domain of IgG1

T1: FLAG-tagged cynomolgous APRIL (cynomolgus monkey, UniProt A0ACM8R0G4 110-250 (rhesus entry))
T1 construct: FLAG-tagged, expressed with TPA signal peptide; also called cyAPRIL
T1 sequence: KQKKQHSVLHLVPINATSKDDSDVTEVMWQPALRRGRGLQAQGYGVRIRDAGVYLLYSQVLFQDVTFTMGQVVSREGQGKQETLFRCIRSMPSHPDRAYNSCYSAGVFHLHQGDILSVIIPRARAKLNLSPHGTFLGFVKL

T2: FLAG-tagged recombinant human APRIL (human, UniProt O75888 105-250)
T2 construct: KINEXA ligand; also called huAPRIL
T2 sequence: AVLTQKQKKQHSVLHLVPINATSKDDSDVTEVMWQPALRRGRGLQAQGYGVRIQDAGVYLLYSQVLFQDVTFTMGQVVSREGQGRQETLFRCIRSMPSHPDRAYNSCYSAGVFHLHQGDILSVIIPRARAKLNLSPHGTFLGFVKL


How the values were obtained:
[1] = biological target: T1, FLAG-tagged cynomolgous APRIL; assay: BIACORE SPR; NB = No binding
Experimental: (§1) For human BAFF, cynomolgus monkey APRIL, and mouse APRIL measurements, mouse monoclonal antibody (IgG1) anti-FLAG M2 (Sigma Aldrich, Cat. No. F1804) was immobilized on CM3 sensor chips (GE Healthcare, Cat. No. BR-1005-41) according to the manufacturer's protocol. Antibody was diluted to 30 μg/ml in immobilization buffer (10 mM pH 5±0.20; GE Healthcare; GE Healthcare, Catalog No. BR-1003-51). […] Unreacted sites were quenched with 35 μl of 1M ethanolamine-HCl, pH 8.5 (GE Healthcare, GE Healthcare, Cat. No. BR-1000-50). This procedure typically yielded 3,000-4,000 response units (RU) of coupled antibody.
(§2) The fusion polypeptides were diluted in HBS-EP buffer and flowed over ligand-coated sensor chips. The variant BCMA-Ig and surrogate control fusion proteins were injected at three concentrations (1.5 nM, 15 nM, and 150 nM at 30 μl/min for 2 minutes per association phase) in a single binding cycle, followed by a 20 minute incubation with HBS-EP buffer containing no protein at the same flow rate. A similar protocol was followed for Z-TACI-Ig, except that the injections were at 4.5 nM, 45 nM, and 450 nM.
Using available information from the structures and published literature, several residues in BAv8-10 were targeted for substitution with conserved as well as non-conserved residues and their effect on BAFF and APRIL binding was assessed by BIACORE.

FLAG-tagged human BAFF [2] = biological target: T3, FLAG-tagged human BAFF (human, UniProt Q9Y275 134-285, limits assumed); assay: KinExA
T3 construct: used in BIACORE (Ex. 9) and KINEXA (Ex. 11); also called huBAFF
Experimental: (§3) Equilibrium measurements were performed using FLAG-tagged, recombinant huBAFF and huAPRIL ligands. Fixed ligand concentrations of human BAFF or human APRIL were incubated with serial dilutions of the variant BCMA ECD-Ig fusion polypeptides, and free ligand was detected in a KINEXA 3200 Instrument. variant BCMA ECD-Ig fusion polypeptides were first diluted in equilibration buffer (1×PBS, pH 7.4, 1 mg/ml BSA) to a range of concentrations from 10 nM to 100 fM. The linear portion of the dilution series was typically 2-fold. Ligands were diluted in equilibration buffer to fixed concentrations ranging from 5 to 20 pM and then incubated with the variant BCMA-Ig dilutions in total reaction volumes ranging from 4.5 to 15 ml. Samples were incubated at room temperature for 48-72 hours to reach equilibrium. For each data point, a fresh column of 850 μl of bead slurry coated with Variant BAv-238475-Ig was introduced into the KINEXA flow cell. Equilibrated samples ranging from 1 to 5 ml reaction volume were injected at a flow rate of 0.25 ml/min. […] The DyLight 649 fluorescent signal was detected using the red filter set (620/30 nanometer excitation filter, 670/40 nanometer emission filter, 645 nanometer dichroic filter) on the KinExA instrument and converted to a voltage signal that was directly proportional to the concentration of free ligand in the equilibrated sample.
(§4) The standard kinetic exclusion assays and data analyses described above were performed on protein preparations of various variant BCMA ECD-Ig fusion polypeptides, as well as Z-TACI-Ig and [S40G]huBCMA ECD-Ig fusion polypeptides. FIG. 8A, FIG. 8B, and Table 4 summarize the binding data for representative variant BCMA ECD-Ig polypeptides and controls in molar concentrations of huBAFF or huAPRIL determined by KINEXA binding assays.

[3] = biological target: T2, FLAG-tagged recombinant human APRIL; assay: KinExA
Experimental: as §3, §4

FLAG-tagged human BAFF [4] = biological target: T3, FLAG-tagged human BAFF; assay: KinExA; remark: listed apart in the source
Experimental: as §3
(§5) Table 5 provides the selectivities of exemplary variant BCMA polypeptides with respect to BAFF and APRIL.

[5] = biological target: T2, FLAG-tagged recombinant human APRIL; assay: KinExA; remark: listed apart in the source
Experimental: as §3, §5

FLAG-tagged human BAFF [6] = biological target: T3, FLAG-tagged human BAFF; assay: BIACORE SPR
Experimental: as §1, §2
(§6) The various fusion proteins described above were expressed and purified as described previously (Examples 2 and 3 for the CET1019AS based plasmids and Examples 7 and 8 for the pcDNA based plasmids). […] The BAv9-1-Ig Fc proteins typically exist in solution as a dimeric fusion protein. The purified fusion proteins were assayed for binding activity using BIACORE (Example 9) and KINEXA (Example 11) assays.

[7] = biological target: T1, FLAG-tagged cynomolgous APRIL; assay: BIACORE SPR
Experimental: as §1, §2, §6

binding result [1] | Kd (FLAG-tagged human BAFF [2]) [pM] | fold improvement over control (FLAG-tagged human BAFF [2]) [fold] | Kd [3] [pM] | fold improvement over control [3] [fold] | Selectivity for huBAFF (KD APRIL/KD BAFF) (FLAG-tagged human BAFF [4]) [ratio] | Selectivity for huAPRIL (KD BAFF/KD APRIL) [5] [ratio] | Kd (FLAG-tagged human BAFF [6]) [pM] | Kd [7] [pM] | Binder
no binding (tested: 150 nM) | – | – | – | – | – | – | – | – | AGQCSQNEYFDHLLRACIPCQVNCSSNTPPLTCQRYCNAGVTNSVKGTNA (Fc fusion, not shown: PIg18: human IgG2 Fc, Ser at Fc positions 4, 5, 11 (native Cys)) [BAv45-Ig]
– | 0.0537 | 4200 | 51.4 | 0.0031 | 957 | 0.001 | – | – | AGQCSQNEYFDSLVRHCIPCQVRCSSNTPPLTCQRYCNAGVTNSVKGTNA (Fc fusion, also called BAv60 (2)-Ig; not shown: PIg18: human IgG2 Fc, Ser at Fc positions 4, 5, 11 (native Cys)) [BAv60-Ig]
– | 0.192 | 1180 | 70.8 | 0.00225 | 369 | 0.003 | – | – | AGQCSQNEYFDHLIRACIPCQARCSSNTPPLTCQRYCNAGVTNSVKGTNA (Fc fusion, also called BAv51 (2)-Ig; not shown: PIg18: human IgG2 Fc, Ser at Fc positions 4, 5, 11 (native Cys)) [BAv51-Ig]
no binding (tested: 150 nM) | – | – | – | – | – | – | – | – | AGQCSQNEYFDHLARACIPCQVRCSSNTPPLTCQRYCNAGVTNSVKGTNA (Fc fusion, not shown: PIg18: human IgG2 Fc, Ser at Fc positions 4, 5, 11 (native Cys)) [BAv63-Ig]
– | – | – | – | – | – | – | 6.75 | 2420 | AGQCSQNEYFDPLVRACIPCQVRCSSNTPPLTCQRYCNAGVTNSVGGGGS-pIg22 (Fc fusion, human, not fully specified; cysteine pairing not given here, domain: Fc; not shown: PIg22: chimeric Fc, CH2 domain of PIg18 (human IgG2 derivative) and CH3 domain of human IgG1) [BAv81-5L-pIg22]
– | 21.8 | 10.4 | 18.3 | 0.00871 | 0.84 | 1.19 | – | – | AGQCSQNEYFDHLIRACTPCQVRCSSNTPPLTCQRYCNAGVTNSVKGTNA (Fc fusion, not shown: PIg18: human IgG2 Fc, Ser at Fc positions 4, 5, 11 (native Cys)) [BAv74-Ig]
– | – | – | – | – | – | – | 6.76 | 784 | AGQCSQNEYFDHLVRACIPCQARCSSNTPPLTCQRYCNAGVTNSVGGGGS-pIg22 (Fc fusion, human, not fully specified; cysteine pairing not given here, domain: Fc; not shown: PIg22: chimeric Fc, CH2 domain of PIg18 (human IgG2 derivative) and CH3 domain of human IgG1) [BAv85-5L-pIg22]
no binding (tested: 150 nM) | – | – | – | – | – | – | – | – | AGQCSQNEYFDPLIRACIPCQARCSSNTPPLTCQRYCNAGVTNSVKGTNA (Fc fusion, not shown: PIg18: human IgG2 Fc, Ser at Fc positions 4, 5, 11 (native Cys)) [BAv79-Ig]
– | – | – | – | – | – | – | 14.1 | 1760 | AGQCSQNEYFDPLIRACIPCQVRCSSNTPPLTCQRYCNAGVTNSVGGGGS (Fc fusion, human, domain: Fc; not shown: PIg22: chimeric Fc, CH2 domain of PIg18 (human IgG2 derivative) and CH3 domain of human IgG1) [BAv49-5L-pIg22]
